The values below come from the DeepSol protein solubility set.

The nature of this data set: soluble on expression in E. coli; label from the status in PepcDB or PDB records.
Regarding “MGSDKIHHHHHHMYVVFGATGQTGSAVANALLERNFPVRVVLRSDKAASTWREKGADVAIAEVTDVEAMTAAMREADAVYVMNPPAYNVSDMFALAEQIGECYVEALTNADARKVVLLSSVGSQHASGTGNILTTHILERMLGNLAVPVTVLRAASFMENWGSAAAIAAEQGVLPSFFAPLDRRLPMVSTEDIGRTAAEAMIEDWKGQRIIELHGPIDYSPNDVAAAFAAVLNRNVQAIAVPESDWQATISSFGFSPEAVNSYSEMMRGFNSGHIVFESSPEIETRTGQTAIEAAVDRLTGSKSK”, the “soluble on expression in E. coli” value was “not soluble”.

In the case of “SFREQDIYLPIANVARIMKNAIPQTGKIAKDAKECVQECVSEFISFITSEASERCHQEKRKTINGEDILFAMSTLGFDSYVEPLKLYLQKFRE”, the “soluble on expression in E. coli” value is reported as “soluble”. Then “MSLARSLNNQRSRLVALVVNAIGNPCEAEEQQLLVHRLQARQLLPIILCCADHSDRLQLMRLASTYQVDHVVVFSDMVSMQDAVDIFHTTKPIIVSFEPLENESVSSIRIDGAEAADEIIDKIVRDGKKRFAYLSGTNSSWIDKLRRKWFADALAKRGLAFEAQAFGDYSYDSGFKEAVLLLHRDKVDAIICGNDVMAIGARDAARRVLGKNTPDDIAIVGQDGIAMAAWDCNDLTTLSLDHVAFIDAVVELIERHDAEVEGPHSITLTCTARWGSEGHHHHHH”, with “not soluble”; and “MSLEITNPILTGFNPDPSLCRQGEDYYIATSTFEWFPGVRIYHSRDLKNWSLVSTPLDRVSMLDMKGNPDSGGIWAPCLSYADGKFWLLYTDVKIVDSPWKNGRNFLVTAPSIEGPWSEPIPMGNGGFDPSLFHDDDGRKYYIYRPWGPRHHSNPHNTIVLQAFDPQTGTLSPERKTLFTGTPLCYTEGAHLYRHAGWYYLMAAEGGTSYEHAVVVLRSKNIDGPYELHPDVTMMTSWHLPENPLQKSGHGSLLQTHTGEWYMAYLTSRPLRLPGVPLLASGGRGYCPLGRETGIARIEWRDGWPYVEGGKHAQLTVKGPQVAEQPAAVPGNWRDDFDASSLDPELQTLRIPFDDTLGSLTARPGFLRLYGNDSLNSTFTQSTVARRWQHFAFRAETRMEFSPVHFQQSAGLTCYYNSKNWSYCFVDYEEGQGRTIKVIQLDHNVPSWPLHEQPIPVPEHAESVWLRVDVDTLVYRYSYSFDGETWHTVPVTYEAWKLSDDYIGGRGFFTGAFVGLHCEDISGDGCYADFDYFTYEPVEGHHHHHH”, with “not soluble”. Take “GPGSMSLPCPSSSSPLLGSITSGVRSPSRGPVQQQQLLHQRHASMRLRLHKDGSICACPEKSGGGVSQACAPPLPATSAFARGKEEPSAKRHHAEPSSCPGPGGDSSSVDRSAAATVVTIAAPLLSIPNPSSRAAPSPFRFLCTSVGGCPVVGAKDARVHLPDSSARCDVSGSVAPRDLSTTSAHSKAHSTAAVGRASPSSGVVSPPLSATYPSLVSASHGARVVCSHPQSASASTVPGATIDTSAPSPVPSPPHRIHQHELRPADFRREEVLGEGSYSIVTLATHRASGLSFALKEIDRSRLRWRPLEAQLRWEINLQRTLRHPHIVRLYSYFITPDCISLVLEYCSGGTLLSRLRAAPQYRLSERQASRYTRHVAKALVHLHGLGVAHRDLKLENVLIDADGIAKLADFGWSRSVVHPLPSSKSAAAAQTAGDRNDAPCSSAEHNTSNEDPTEGVAEGRRTVCGTLDYLSPEMVSGQAHSAKTDVWSLGVMLAEMLTGTPPFYTESTQETLYAIQRLPPNLTGLHPKGHGPGLTGSGASTSASVCLILDEPVALSAGALSLIHAMLQKDPSARPTMPEVLGHPWLQKKKLARKS”: the “soluble on expression in E. coli” value was “not soluble”. “MRLAVLIDADNAKADAISDLLAEVSKFGVATVKRAYGDWTTTNLQGWKKQLHKYAIQPMQQFSYTRGKNSTDASMIIDGMDLLYTGNFDGFCIVSSDCDFTRLATRFREAGLSVYGFGEKKTPEPFVAACDRFIFTEILGKGETQEKPAATGKADESAASKELLKLLRKAVAAVSGEDGWASLSNLGSHISKIRPSFDSRNYGYSKLSTLVKNLDIFETRMVPSADKLHTDVFLRLKDGKLEHHHHHH”: the “soluble on expression in E. coli” value is on record as “not soluble”. Regarding “MSSNYATPLDDEVFPLSFANYQFTEHVSLGEHYSLNTSEDAKYNNLNGPFVVPRDTGKFDLNTSSASDETVFSLDNPQENNYKHQAMNNVQDCRMAVAAKTTQSCDKLTDLYANAAQQNYRLWLSSF”, the “soluble on expression in E. coli” value is “not soluble”.

As to “MQKSSLISHRFSFCKVCGGKANGNHFGIQSCRACAAFFRRAANSKWSSMKCTTFGCADMLVPCKPCRLKRCQEQGMSTTNFQFDRDALKRLLVPKSVEKFVGRPESVIFCDMTESTSKTFIDIRPLIEKTSNILKNGAEGPIFGRNQLQKLANGFENYTNEISVKMIKKIGKSETADCWEYYITTTAKWLNYFNGFKLLSHELQVGKYVFFIEIFSK”, the “soluble on expression in E. coli” value is on record as “not soluble”. “MAEASPQPGRYFCHCCSVEIVPRLPDYICPRCESGFIEELPEETRNTENGSAPSTAPTDQNRQPFENVDQHLFTLPQGYSQFAFGIFDDSFEIPTFPPGAQADDGRDPESRREREHQSRHRYGARQPRARLTARRATGRHEGVPTLEGIIQQLVNGIISPAAVPSLGLGPWGVLHSNPMDYAWGANGLDTIITQLLNQFENTGPPPADKEKIQALPTVPVTEEHVGSGLECPVCKEDYALGESVRQLPCNHLFHDSCIVPWLEQHDSCPVCRKSLTGQNTATNPPGLTGVGFSSSSSSSSSSSPSNENATSNS”: the “soluble on expression in E. coli” value was “soluble”. As for “MNLLQRALVFTGGHISRYQAVIAVNSVGKNARFYSTTDDNMAAPEESVVAKDEMKRFMVECMTKVGATESHATQLALVLLEGDIRGHYSHGLNRLDMYVRDIEQNVCKGDGEPIILKEKAGTAWVDGNNLLGPVVGNFCMDLAIEKAKNAGIGWVVAKGSNHYGIAGWYALRAMKKGMLGMSMTNTSPISFPTRSAVPALGTNPISLAAPGTGDDSFVLDMASTTVAIGKVELAARKENPVPLSWGVGEGGKETTDPTKVLYGGGLLPLGGVEVSGGYKGYGLSSMIEIFCGILAGAHWGPHVRKWMSTKSEADLGQCFVAIDPEAFAPGFADRLQDFMQTMRALPTSSPSFKVEVAGDMERRHEALVEQLGGIPYHKNQITFVNDLAAKLGVKTVDLVQ”, the entry is “not soluble”; as for “MKKHDGIIVLLSGGMDSATLLWLAKREFKKVYAISFDYGQRHKVELKYAKELAKLAEVEDHFIVQVPFYTSLKGSALIDESVEVPKGEYPENEPPVTTVPMRNLIFLSIASAFADNLEVNYIGIGVHALDTPYPDCRPEFITAAEAAINAGSTFVAKKKERMHVYAPFLGMSKRDIALLGKELGVPFEKTYSCYMGTEPPCGECPTCIQREEALRGIL”, “soluble”. Regarding “GPGSMPGGGLEVIGTPALPHPSSASDADDAAAGCSFRLSQSGGDPRYVSSRVAGRMQDARHGAESRLVDGTATFLDFLAETSVERPLRVRLRQRARQSFVFFNLETAIDCLNLSWEAYAVQESRGDDFISTGIQVNAAEVPRAALGFVERVAMALLGLCFNPSPHVCHALDDSEEDAAAAISFTSGGDRTPLLDERRASRSRSPVRAPLGAEVASSATRATQADLAAAALFPHCGSSSTRSGSCQPFFRQPAPAASATSPCFGGTSSPPGAAAAGASSFSSSPSNRIGSFPTSASAATANAGADAARLPHMNPEQYGYHRVAVLEARGVQVVVVRMDTSGSCPVHIGKVPRLVIAFRGTDNVANVMEDIRFRQRTWKEMKTPTLSGRASVHSGFLELWMSLKERVIDVVLRELRSQCTPLEGSNAEVSAAGTTGHAGEGASTVAGCSPSQAGHDMFHATVPFSDIWSLRRNGGGRGCADTRQGAFGSEQGGFEGFMRVYVTGHSLGGALASLCAYTLRRMLLLIQYPEPDLVVYTFGQPRIGNFVFKQYYNRAVPCTFRVVNESDAVSGFNFFGGHHVGVQVNIDRHGNYICKPMYIERMFRPTRGRGFALANHAISAYASSLNAMANVYTHGACPLRCRQPYMGEIVSVSSTNSE”, the “soluble on expression in E. coli” value was “not soluble”. As for “MSEPVKLRAHTQAHCKDCSLAPLCLPLSLNTDDMDSLDQIVKRGRPLKKGEFLFRQGDTFESVYAVRSGALKTFNISDNGEEQLTGFHLPSELVGLSGMDAEAYPVSAQALETTSVCEIPFERLDELSVQLPQLRRQLMRVMSREIRDDQQMMLLLSKKTADERIATFLINLSARFRARGFSANQFRLSMSRSEIGNHLGLAVETVSRVFTRFQQNQLVSAEGKEIHILAPIELCALAGGAMQS”, the entry is “soluble”; as for “MTKEERISRATELFKSGYNCSQSVVAAFADMYGFTEEQALRMAASFGGGIGRMRETCGAACGMFLLAGLEKGAIDGADREGKAANYALVQELAAEFKKRNGSLNCGELLGLKKKAPVSSEPEARTEQYYAKRPCSKMVEEAARIWAEYLEKEKK”, “not soluble”; as for “MPGERFSHSRCHAIAIKELQRRTENRDGTALHILPKSQRKLAIFLINMDSATKRLTDMNARLDAMGLKAERVAGVNGRELQYPIPEFSEISYMLMHGRRTSPPEIGCYLSHVACANKFMTGDADIALILEDDVVFEDDFLDAIDEAVLNGNDWDILRLTTVSNGRKFAFRALSNGRSLAVALTREKGSGAYLVNRRAGKWISKLIPMRLAYDIAFDLEYLSGLKAAFIYPLCATQDADGESQIQNNLRIYRLPRWRYFTVLPYRAYLETSRFLLRGLRFLVAKAKVAMERGKPKAVQAGRLEHHHHHH”, “soluble”. On to “QECTKFKVSSCRECIESGPGCTWCQKLNFTGPGDPDSIRCDTRPQLLMRGCAADDIMDPTSLAETQEDHNGGQKQLSPQKVTLYLRPGQAAAFNVTFRRAKGY”, for which the “soluble on expression in E. coli” value is “soluble”. As for “MKLQSYLMGEWREGQGEGVPVRDASTGEVLARVTAEGLPVKEAVAWGREVGGKALLALGFQERGRRLRALAQYLSERKEALYRLYATTGGTRRDAWYDVDGGIGVLYAYSSLARNLPEGNLLPEDDFLPLSKDLSFQGRHVLAPKGGITVQINAFNFPVWGLLEKFAPAFLAGVPTLAKPATPTAHVAEALVRTMLESGLLPEGSLQLLVGSVGDLFDALDHRDSVFFTGSKATADRLRRHPAFLERGALFNAEADSLNPAILGEKATEEELSRLAQEIAQELVIKTGQRCTAIRRVFAPRERLKALLEATRKRLEALRLGDPREEGVDLGPLASLEQKAEVEKAVAALLEAGARVYWRHPGREDGAFFPPTLLLAEDPWPGALHQVEPFGPVATFFPYGSREEAARLAALGGGSLVATLATSDPEEARFYLLALAPYVGRLHLLNARTAASSTGHGSPLPRLLHGGPGRAGGGEELGGLLSVRRHLGRVALQADPWLLSALTGEYAKGAEKPAEVHPFRKAYEDLEVGETLTTHRRTVTEADIALFSALSWDHFYAHTDEIAARESLFGKRVAHGYFVLSAAAGLFVDPAPGPVLANYGLEGLRFLEPVGAGDTLQVRLTVKRKRPRDEKTGVVEWAAEVVNQEGKPVATYTVLTLVARKGALAKGS”, the entry is “soluble”; as for “MWQKSALTTVSISLPQQAVYSGMRYEVNISAAKCDGTGVTFGTINNCTITLSLPAGASIITRHFSADL”, “not soluble”; as for “MSLDDGTGLFTIGQLARRTGLSVRTIRYWSDEGALPPVTRSSGGYRLYDAGSVARLELIRTLRELGLGLDDVREVLAGETTVAEVAATHVTALDAQIRALKVTRAVLSTVARRGSTAEEMTLMNKLARLSAAERRRILEEFADEMFRGLDTADPVIRERMRNTAVDLPDEPTPEQVDAWVELVELLQDPEFRAQMRAAAEFNAADRGHDSPAGASLWFVRRLVQLAADARQRGIAPEAPEAEEVLRELLGEADGAADRAAVLERLEATSNDRVARYRELLAVVKGGGPLPAHREEFGWVVAALRAREGHHHHHH”, “soluble”.

As to “MRHGCHTVIASRSLPRVLTAARKLAGATGRRCLPLSMDVRAPPAVMAAVDQALKEFGRIDILINCAAGNFLCPAGALSFNAFKTVMDIDTSGTFNVSRVLYEKFFRDHGGVIVNITATLGNRGQALQVHAGSAKAAVDAMTRHLAVEWGPQNIRVNSLAPGPISGTEGLRRLGGPQASLSTKVTASPLQRLGNKTEIAHSVLYLASPLASYVTGAVLVADGGAWLTFPNGVKGLPDFASFSAKL”, the “soluble on expression in E. coli” value is listed as “not soluble”.
